Reference: publication PMC11574045, “A cofactor-induced repressive type of transcription factor condensation can be induced by synthetic peptides to suppress tumorigenesis” (The EMBO Journal, 2024)

Test system: HEK293FT cells transfected with TF library
Assay: Screening of TF condensates based on fluorescent puncta
Assay type: cell-based
Conditions: Figure 1B numerical data; TF library screen, one value per transcriptional factor
Outline: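 TF plasmids (final 1.6 μg/ml) reverse-transfected with PEI (4.8 μg/ml) into HEK293FT cells; after 60 h, cells cultured ±glucose for 12 h, fixed in 4% PFA and immunostained for Flag or GAL4 tags with Alexa 488 secondaries. Puncta scored by automated imaging of 50 random fields per well.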

Molecule	Z score of condensed fraction
CREM (protein, UniProt Q03060 1-345, looked up) cAMP-responsive element …: MTMETVESQHDGSITASLTESKSAHVQTQTGQNSIPALAQVSVAGSGTRRGSPAVTLVQLPSGQTIHVQGVIQTPQPWVIQSSEIHTVQVAAIAETDESAESEGVIDSHKRREILSRRPSYRKILNELSSDVPGVPKIEEERSEEEGTPPSIATMAVPTSIYQTSTGQYIAIAQGGTIQISNPGSDGVQGLQALTMTNSGAPPPGATIVQYAAQSADGTQQFFVPGSQVVVQDEETELAPSHMAAATGDMPTYQIRAPTAALPQGVVMAASPGSLHSPQQLAEEATRKRELRLMKNREAAKECRRRKKEYVKCLESRVAVLEVQNKKLIEELETLKDICSPKTDY	-0.7399
ABT1 (protein, UniProt Q9ULW3 1-272, looked up) Activator of basal …: MEAEESEKAATEQEPLEGTEQTLDAEEEQEESEEAACGSKKRVVPGIVYLGHIPPRFRPLHVRNLLSAYGEVGRVFFQAEDRFVRRKKKAAAAAGGKKRSYTKDYTEGWVEFRDKRIAKRVAASLHNTPMGARRRSPFRYDLWNLKYLHRFTWSHLSEHLAFERQVRRQRLRAEVAQAKRETDFYLQSVERGQRFLAADGDPARPDGSWTFAQRPTEQELRARKAARPGGRERARLATAQDKARSNKGLLARIFGAPPPSESMEGPSLVRDS	-0.3156
CREBL2 (protein, UniProt O60519 1-120, looked up) cAMP-responsive …: MDDSKVVGGKVKKPGKRGRKPAKIDLKAKLERSRQSARECRARKKLRYQYLEELVSSRERAICALREELEMYKQWCMAMDQGKIPSEIKALLTGEEQNKSQQNSSRHTKAGKTDANSNSW	0.3406
CLOCK (protein, UniProt O15516 1-846, looked up) Circadian locomoter output …: MLFTVSCSKMSSIVDRDDSSIFDGLVEEDDKDKAKRVSRNKSEKKRRDQFNVLIKELGSMLPGNARKMDKSTVLQKSIDFLRKHKEITAQSDASEIRQDWKPTFLSNEEFTQLMLEALDGFFLAIMTDGSIIYVSESVTSLLEHLPSDLVDQSIFNFIPEGEHSEVYKILSTHLLESDSLTPEYLKSKNQLEFCCHMLRGTIDPKEPSTYEYVKFIGNFKSLNSVSSSAHNGFEGTIQRTHRPSYEDRVCFVATVRLATPQFIKEMCTVEEPNEEFTSRHSLEWKFLFLDHRAPPIIGYLPFEVLGTSGYDYYHVDDLENLAKCHEHLMQYGKGKSCYYRFLTKGQQWIWLQTHYYITYHQWNSRPEFIVCTHTVVSYAEVRAERRRELGIEESLPETAADKSQDSGSDNRINTVSLKEALERFDHSPTPSASSRSSRKSSHTAVSDPSSTPTKIPTDTSTPPRQHLPAHEKMVQRRSSFSSQSINSQSVGSSLTQPVMSQATNLPIPQGMSQFQFSAQLGAMQHLKDQLEQRTRMIEANIHRQQEELRKIQEQLQMVHGQGLQMFLQQSNPGLNFGSVQLSSGNSSNIQQLAPINMQGQVVPTNQIQSGMNTGHIGTTQHMIQQQTLQSTSTQSQQNVLSGHSQQTSLPSQTQSTLTAPLYNTMVISQPAAGSMVQIPSSMPQNSTQSAAVTTFTQDRQIRFSQGQQLVTKLVTAPVACGAVMVPSTMLMGQVVTAYPTFATQQQQSQTLSVTQQQQQQSSQEQQLTSVQQPSQAQLTQPPQQFLQTSRLLHGNPSTQLILSAAFPLQQSTFPQSHHQQHQSQQQQQLSRHRTDSLPDPSKVQPQ	-0.2095
CREB5 (protein, UniProt Q02930 1-508, looked up) Cyclic AMP-responsive …: MIYEESKMNLEQERPFVCSAPGCSQRFPTEDHLMIHRHKHEMTLKFPSIKTDNMLSDQTPTPTRFLKNCEEVGLFSELDCSLEHEFRKAQEEESSKRNISMHNAVGGAMTGPGTHQLSSARLPNHDTNVVIQQAMPSPQSSSVITQAPSTNRQIGPVPGSLSSLLHLHNRQRQPMPASMPGTLPNPTMPGSSAVLMPMERQMSVNSSIMGMQGPNLSNPCASPQVQPMHSEAKMRLKAALTHHPAAMSNGNMNTMGHMMEMMGSRQDQTPHHHMHSHPHQHQTLPPHHPYPHQHQHPAHHPHPQPHHQQNHPHHHSHSHLHAHPAHHQTSPHPPLHTGNQAQVSPATQQMQPTQTIQPPQPTGGRRRRVVDEDPDERRRKFLERNRAAATRCRQKRKVWVMSLEKKAEELTQTNMQLQNEVSMLKNEVAQLKQLLLTHKDCPITAMQKESQGYLSPESSPPASPVPACSQQQVIQHNTITTSSSVSEVVGSSTLSQLTTHRTDLNPIL	-0.7141
CRY1 (protein, UniProt Q16526 1-586, looked up) Cryptochrome-1: MGVNAVHWFRKGLRLHDNPALKECIQGADTIRCVYILDPWFAGSSNVGINRWRFLLQCLEDLDANLRKLNSRLFVIRGQPADVFPRLFKEWNITKLSIEYDSEPFGKERDAAIKKLATEAGVEVIVRISHTLYDLDKIIELNGGQPPLTYKRFQTLISKMEPLEIPVETITSEVIEKCTTPLSDDHDEKYGVPSLEELGFDTDGLSSAVWPGGETEALTRLERHLERKAWVANFERPRMNANSLLASPTGLSPYLRFGCLSCRLFYFKLTDLYKKVKKNSSPPLSLYGQLLWREFFYTAATNNPRFDKMEGNPICVQIPWDKNPEALAKWAEGRTGFPWIDAIMTQLRQEGWIHHLARHAVACFLTRGDLWISWEEGMKVFEELLLDADWSINAGSWMWLSCSSFFQQFFHCYCPVGFGRRTDPNGDYIRRYLPVLRGFPAKYIYDPWNAPEGIQKVAKCLIGVNYPKPMVNHAEASRLNIERMKQIYQQLSRYRGLGLLASVPSNPNGNGGFMGYSAENIPGCSSSGSCSQGSGILHYAHGDSQQTHLLKQGRSSMGTGLSGGKRPSQEEDTQSIGPKVQRQSTN	-0.5227
CRSP6 (protein, UniProt Q9NVC6 1-651, looked up) Mediator of RNA polymerase II …: MSGVRAVRISIESACEKQVHEVGLDGTETYLPPLSMSQNLARLAQRIDFSQGSGSEEEEAAGTEGDAQEWPGAGSSADQDDEEGVVKFQPSLWPWDSVRNNLRSALTEMCVLYDVLSIVRDKKFMTLDPVSQDALPPKQNPQTLQLISKKKSLAGAAQILLKGAERLTKSVTENQENKLQRDFNSELLRLRQHWKLRKVGDKILGDLSYRSAGSLFPHHGTFEVIKNTDLDLDKKIPEDYCPLDVQIPSDLEGSAYIKVSIQKQAPDIGDLGTVNLFKRPLPKSKPGSPHWQTKLEAAQNVLLCKEIFAQLSREAVQIKSQVPHIVVKNQIISQPFPSLQLSISLCHSSNDKKSQKFATEKQCPEDHLYVLEHNLHLLIREFHKQTLSSIMMPHPASAPFGHKRMRLSGPQAFDKNEINSLQSSEGLLEKIIKQAKHIFLRSRAAATIDSLASRIEDPQIQAHWSNINDVYESSVKVLITSQGYEQICKSIQLQLNIGVEQIRVVHRDGRVITLSYQEQELQDFLLSQMSQHQVHAVQQLAKVMGWQVLSFSNHVGLGPIESIGNASAITVASPSGDYAISVRNGPESGSKIMVQFPRNQCKDLPKSDVLQDNKWSHLRGPFKEVQWNKMEGRNFVYKMELLMSALSPCLL	-0.7101
CRSP9 (protein, UniProt O43513 1-233, looked up) Mediator of RNA polymerase II …: MGEPQQVSALPPPPMQYIKEYTDENIQEGLAPKPPPPIKDSYMMFGNQFQCDDLIIRPLESQGIERLHPMQFDHKKELRKLNMSILINFLDLLDILIRSPGSIKREEKLEDLKLLFVHVHHLINEYRPHQARETLRVMMEVQKRQRLETAERFQKHLERVIEMIQNCLASLPDDLPHSEAGMRVKTEPMDADDSNNCTGQNEHQRENSGHRRDQIIEKDAALCVLIDEMNERP	-0.379
